Assay results: the DeepSol protein solubility set

Assay: soluble on expression in E. coli; label from the status in PepcDB or PDB records

Row | Sequence | soluble on expression in E. coli
1 | SKFLDVECLSELQRKLNDLELTDYRVRCQLEAYSCKPAGFDKKLSKSLEQKLVEQLEASPRVLEGSPVGSLEDQSARKTLINLICTLNAAHQDYDFSSLQLSRLKRVQDVRSLQQHVDSLFELFYRQLGLEFRQFLWENIGQIIRPEECEVYSYLPDYESDPYSASGALWSFCYFFYHKNMKKILFFSCTLSTRLAEDSESTESVDEEDFGKESSGLETPFAMFETVI | soluble
2 | SKHYPEAGIQYSSSTTGDGRPLDIEFSGSCSLEKFYDNPKSNDGNSYRLQSWLYASRLLQYSDALEHLLSTGQGVVLERSIYSDFVFLEAMYNQGFIRKQCVDHYNEIKRLTLPEYLPPHAVIYIDVPVSEIQSRIQKKGDPHEMKVTSAYLQDIEDAYKKTFLPKMSEICEVLVYSSWEAEDSTKVVEDIEYLNYNKGPWLKQDDRTFHNLRMLVQDKREVLNYTTVPVYLPEITIGAHQGSRIYDSFRELPGRKYAPGYNADVGDKWIWLK | soluble
3 | SKKGGKRFEIACYKNKVMSWRSGAEKDLDEVLQTNTVFVNVSKGQVAKKEDLSNAFGTDDLTEICKQILSKGELQVSDKERQSQLEQMFRDIATIVAEKCVNPETKRPYTVNLIERAMKDIHFSVKANKSTKQQALEVIKQLKESIQIQRAHMRLRFVLPAKDGKRLKEKLKPLIKAVENEDFDDQLEMVCLIDPGCFRDIDELIRCETKGKGTLEVLSLKDVEEGDEKLE | soluble
4 | SKKLLFQFDTDATPSVFDVVVGYDGGADHITGYGNVTPDNVGAYVDGTIYTRGGKEKQSTAIFVGGGDMAAGERVFEAVKKRFFGPFRVSCMLDSNGSNTTAAAGVALVVKAAGGSVKGKKAVVLAGTGPVGMRSAALLAGEGAEVVLCGRKLDKAQAAADSVNKRFKVNVTAAETADDASRAEAVKGAHFVFTAGAIGLELLPQAAWQNESSIEIVADYNAQPPLGIGGIDATDKGKEYGGKRAFGALGIGGLKLKLHRACIAKLFESSEGVFDAEEIYKLAKEMA | soluble
5 | SKLTRKMVLTRAKASELHSVRKLNCWGSRLTDISICQEMPSLEVITLSVNSISTLEPVSRCQRLSELYLRRNRIPSLAELFYLKGLPRLRVLWLAENPCCGTSPHRYRMTVLRTLPRLQKLDNQAVTEEELSRALSEGEEITAAPEREGTGHGGPKLCCTLSSLSSAAETGRDPLDSEEEATSGAQDERGLKPPSRGQFPSLSARDASSSHRGRNVLTAILLLLRELDAEGLEAVQQTVGSRLQALRGEEVQEHAE | soluble
6 | SKLVWSPETASKAYIDTVKSCENLETPDAAELIAAMAAGWNVKLIVETWSEGDAIASSIGLNVASKHANAKHICIVQNSRSESAYLQAIQESSSPLNFPETIVAEEPGKAMKKLQGVDFLVVDWRNKEFAAAALKNAAFGNRGAVVVCRNGYSSLRRVLRDRKVVRTVTLPVTGGIEIAHVAARNSGKSGNNKRRWITHVDQRSGEEHVFSI | soluble
7 | SKMARASASASLIDGKIYVFGGCPEDADSSNWAEVFDPVYQTWGIFNTPKMAHSINQSVVIEEKKVYAVDEEDQSFSFLPSEGRIWKSGKKDSKVGSRHDWCVIGKLLYCRATRGRILWCQPDELDWKEVKGLEQLQLYLSGTRYIFRRTSDKRPSKTNVKYDIRKISSNSAGNIVIFGNAHIGDPECVELWSAEISMERREGGEIWGKIEWSNVVFKLDPLSNSYSVDVLFSASVHL | soluble
8 | SKRVNSCVKDEEHVLEELETEGERQLKSLLQHQLDTSVSIEECVSKKKSFAPGTMYKPFGKEAAGTMTLSQFQTLHEKDQETASLRELGLNETEILIWKSHVSGEKRTKLRATPEAIQKRLEDIKERISERQRILCLPQRFSKSKQLTRREMEIEKSLFQGTDRHSFLKALYYQDEPPKKNKGDPMNNLEHFYRETIMKKRLEEFQLLRGESFACHSLVSAASVSGSGTAEKPSLLQDKGKQAAQGKGPRLHVAKLIDFPTEQYWTGPKTLKQPIEFIPEDEIQRNRLSEEEIRNIPMFSSYNPGEPNKVLYLKNLSPRVKERDLISLFARFQEKKGPPIQFRMMTGRMRGQAFLTFPNKDIAWQALHQINGYKLYGKILVIEFAKSKKQQSAVQRSSLITSAPDGRTEINGS | soluble
9 | SLAEPPAQDPAELAAAAESYLRQQLAALPGEPSITLDPLRTDRLDACEALTPFMPSGMRVRARMTVGLRCVAPRTWTVYAQATVSVPGQYYVAARQIAPGKTIEAADLTTRDGDLVALPPGVITDAAAILGMRPAHRIAAGQPIKGAGLRSAESVSRGQSVRITARGNGFVVSSEGQALDNAPPGATVQVRTASGQVVSGIVQAAGLVEIQL | not soluble
10 | SLANIREIAKRAGISIATVSRHLNNTGYVSEDAREKIQKVVDELNYTPNALARAMFTKNSKTIGLMVPNISNPFFNQMASVIEEYAKNKGYTLFLCNTDDDKEKEKTYLEVLQSHRVAGIIASRSQCEDEYANIDIPVVAFENHILDNIITISSDNYNGGRMAFDHLYEKGCRKILHIKGPEVFEATELRYKGFLDGARAKDLEIDFIEFQHDFQVKMLEEDINSMKDIVNYDGIFVFNDIAAATVMRALKKRGVSIPQEVQIIGFDNSFIGELLYPSLTTINQPIEALAYTIIELLIKIINGEGVLIEDYIMEVKLIERETTISLKDEG | soluble
11 | SLAPTTEIEPIEAQSLKKLSLKSLKRSLELFSPVHGQFPPPDPEAKQIRLSHKMKVAFGGVEPVVSQPPRQPDRINEQPGPSNALSLAAPEGSKSTQKGATESAIVVGPTLLRPILPKGLNYTGSSGKSTTIIPANVSSYQRNLSTAALMERIPSRWPRPEWHAPWKNYRVIQGHLGWVRSVAFDPSNEWFCTGSADRTIKIWDVATGVLKLTLTGHIEQVRGLAVSNRHTYMFSAGDDKQVKCWDLEQNKVIRSYHGHLSGVYCLALHPTLDVLLTGGRDSVCRVWDIRTKMQIFALSGHDNTVCSVFTRPTDPQVVTGSHDTTIKFWDLRYGKTMSTLTHHKKSVRAMTLHPKENAFASASADNTKKFSLPKGEFCHNMLSQQKTIINAMAVNEDGVMVTGGDNGSIWFWDWKSGHSFQQSETIVQPGSLESEAGIYAACYDNTGSRLVTCEADKTIKMWKEDENATPETHPINFKPPKEIRRF | soluble
12 | SLAQIPRPEIMDEDQLMKEVLDKFVNCHEQTYEEFLSTFTHLSKEDNVAKWGAHGTDSSENIFSTVKWNHKTESNGCHFRNTTIFLHTSSEHSEEDQIVIDEGHKVGSSFQGDMTRAGKVKVDNFLDLEDVDMEEESKPQMNKDCLLLPGEVEQDISTSVPSYDPSVDLPLTSEVRPKPAVGRTQKQTEEILGDEVQPFFLDEEFDYDNVTLTPKFTAGEIATIQELSKQKRVGSGTNVCELHD | soluble
13 | SLDWQKGMNSAIDYIEKNLTGNVNVRTAAGFVGCSTWEFQRIFSFLTHIPLSEYIRQRKLTLAAQEIKDNDVKIIDIALKYGYESPAAFSRAFNKLFGIAPSSVRNTENNLKTYPRITFEKIENERLIKMSRFSERGYVVRENGPVYFTKDMDKTVKWFEEILGWSGDIVARDDEGFGDYGCVFDYPSEVAVAHLTPFRGFHLFKGEPIKGVAGFMMIEGIDALHKYVKENGWDQISDIYTQPWGARECSITTTDGCILRFFESIQEG | soluble
14 | SLENKIVKIEPQSIAEEMGIEVGDSLISINGKEVKDIIDYRFLMADEYVVVKIQKTNKEIWELEIEKEYDEKLGVEFESGILDSAKSCRNKCIFCFIDQLPKGMRKTLYFKDDDSRLSFLQGNFVTLTNMSDDDIDRIIKYRISPINISVQTTNPELRKKMLNNKFAGNLMERMKKLSNAGITMNCQVVLCPGINSGEEFSKTVNDLYKLYPSVKNIAGVPVGITSYREGLFNMVPYDSQSALKEIENIKPIQEKFIKEIGSPFVRLSDEFYVLSGIPIPKAEFYGEFEQFEDGIGMIRTFRDNINMSLDNLKDGIHKSFTMVTGVLAYEEIENAAKMLMEKSRGLKINVIKVINEFFGEKITVAGLLTGRDILNYLKRNEVGDYIILPSNMLKSDEDVFLDDVKVLDIEKELNKKVLVCNYSGEDLVDIINKNGREE | soluble
15 | SLERPPALAMPMPTEGTPPPLSGTPIPVPAYFRHAEPGFSLKRPRGLSRSLPPPPPAKGSIPISRLFPPRTPGWHQLQPRRVSFRGEASETLQSPGYDPSRPESFFQQSFQRLSRLGHGSYGEVFKVRSKEDGRLYAVKRSMSPFRGPKDRARKLAEVGSHEKVGQHPCCVRLEQAWEEGGILYLQTELCGPSLQQHCEAWGASLPEAQVWGYLRDTLLALAHLHSQGLVHLDVKPANIFLGPRGRCKLGDFGLLVELGTAGAGEVQEGDPRYMAPELLQGSYGTAADVFSLGLTILEVACNMELPHGGEGWQQLRQGYLPPEFTAGLSSELRSVLVMMLEPDPKLRATAEALLALPVLRQPRAWGVLWCMAAEALSRGWALWQALLALLCWLWHGLAHPASWLQPLGPPATPPGSPPCSLLLDSSLSSNWDDDSLGPSLSPEAVLARTVGSTSTPRSRCTPRDALDLSDINSEPPRGSFPSFEPRNLLSLFEDTLDPT | soluble
16 | SLETYGDSLATAVAERWNNHQAFIFGLATGAVVRLIAPLLQSKQSDPAVLVVDAMGQSVISLLSGHQGGGDRLAQIVAEQLQAKAILTGGANGLGQIAVDCLGIPFGWRKGKGDWTAVSSALAAQKLVGVTQTAGLTLWQNHLPPGHGFTFSGTKETTATLLITVQESNLEKLNKPMAPWHPRLLWIGVGCVRGTDLALLERALLEVLERENLSPLAIAGLASVHLKADEVGMQQFAQKYDLPFFTFPPEQLAAQAVPNPSEVVLQEVGTPSVAEAAALTAAQMYSQGGKLIAEKVIVKQHNQAVTVAIAKGE | not soluble
17 | SLFNPNELKMDFLKRPVTHSFLKLEIMPYKSAFNLRMRENIQSYYKQALRGWGSFEDELLGLKNTLKNLPLYQTLKIKPKKINAPICVVGNGPSLDLLLDFLKENEKNCIIFSCGTALKPLKTHGVKVDFQIEVERIDYLKEVLENAPLEDTPLMGANMLNPNAFNVAKEALMFMRGGSACAYISPLSIEYAAPLVGNAGVALAGLMSDEIYLCALDCAYIKGFKKHAQNSYYGDEKEIDTSSLISVEGNFKGYETFSDSLFLLSKERIEEALNHYQPKKVYNLSYGAKIKHAVSLNYSQVKL | not soluble
18 | SLGEMKRAAIIIDDFGGDVKGVDDFLTGEIPVTVAVMPFLEHSTKQAEIAQAAGLEVIVHMPLEPKKGKISWLGPSGITSNLSVGEVKSRVRKAFDDIPYAVGLNNHMGSKIVENEKIMRAILEVVKEKNAFIIDSGTSPHSLIPQLAEELEVPYATRSIFLDNTHSSRKEVIKNMRKLAKKAKQGSEPIGIGHVGVRGDETYAGIRSMLDEFQAESIQLVPVSQLLPSPIEEDHNKFWQQPFQAKE | soluble
19 | SLGHWQLASKPTVLKGLPASTGVAIGEFWFDNTQPSLSDVFPSSTLDKEREQELLLVAIERALNDFRRMRKKFDSEINKDALAIFDLFTHLLNDPMLRGDLKKQIEKGDRADWALRQVVETYSNRFARMSDVYLRERAQDIRELGQRLLYFLHNSEQENAAIDRPIILVANELTATLLASVPKEHLLAVVSLEGGANSHAAILSRALGVPAVMGANINTDVVNGKLGIVDGYTGEIFLEPNRQLLREYRSLVSEESELFAMVNKDLA | not soluble
20 | SLGWFKTCSKQEDNDVCVVQNVVLAQNGQMITAVGLITVEGKVNRKLLQVSVPTARLIPPGVMMQIDGGKGQKLDYAVCLPDKCTAEVPLTDAMIASLKKGSEVVFTSINFRRAPNPIKIALSGFTGAYDGAAITQSQLAE | not soluble
21 | SLHAAKDEVRSRLMPINRAYNVEKLIEAIQYYQEKTNRRVTFEYGLFGGVNDQLEHARELAHLIKGLNCHVNLIPVNHVPERNYVKTAKNDIFKFEKELKRLGINATIRREQGSDIDAACGQLRAKERQVETR | soluble
